Where two headings read alike, the source gives them in different places.
Tests used:
[1] = target: T1, actin filaments (rabbit, UniProt P68135 1-377); test: co-sedimentation
[2] = target: the molecule itself; test: two-color TIRF microscopy
[3] = target: the molecule itself; test: two-color TIRF microscopy; remark: listed apart in the source
[4] = target: T1, actin filaments; test: co-sedimentation; remark: listed apart in the source

B1: INF2-FFC (domain or fragment)
chain: not shown
- stoichiometry N [1]: 1 INF2 monomer:actin monomer

B2: GFP-INF2-FFC (domain or fragment)
chain: not shown
- stoichiometry N [2]: 2.06 molecules
- stoichiometry N [3]: 2.17 molecules

B3: INF2-FF (domain or fragment)
chain: not shown
- fold lower affinity than INF2-FFC [4]: 5 fold
